From patent publication US20240343826A1, “Compositions and Methods for Targeting Cancer Stem Cells” (Seagen Inc., priority 2015, published 2024) come the findings set out here.

Assay [1] deals with OV90 cells. The experiment in a line: MTT cell viability assay, antibody and chemotherapeutic agent treatment. The assay is classed as cell-based, human. Particulars: 72 to 144 hours, S3F 0.033 nM-500 nM; for cell viability (MTT assay): STn+CD133+ OV90 and CSC sub-fractions, normalized to untreated control. The protocol:
STn+CD133+OV90 and CSC sub-fractions were treated with unconjugated anti-STn antibody S3F [0.033 nM-500 nM] or with different concentrations of chemotherapeutic agents paclitaxel and/or carboplatin. OV90 cells were cultured for 72 to 144 hours with the indicated concentrations and cell viability was analyzed by MTT assay (FIG. 2). All values were normalized to the untreated control.
On the technique in general: Formazan colour is commonly taken as a measure of viable cells.

Assay [2] deals with CSC tumors. The experiment in a line: Anti-CSC activity in vivo, tumors in NOD/SCID mice. The protocol:
The growth conditions of CSC subfractions in NOD/SCID mice is established and analyzed. Anti-STn antibodies are administered to mice as conjugates with chemotherapy and treated mice are tested for toxicity and efficacy through mouse observations and weights.
An equivalent amount of serially-diluted positive or negative subfraction cells (i.e., 1×10^5, 1×10^4, and 1×10^3/mouse; 2-8 mice/group) are injected subcutaneously (s.c.) into NOD/SCID mice, to compare their potential to generate tumors. Following injection of tumor cells, the mice are monitored daily for evidence of tumor formation and general health.
For treatment, tumors may be generated in mice from up to four sources: 1) primary ovarian tumors; 2) xenograft tumors previously established in NOD/SCID mice; 3) cryopreserved xenograft tumor tissue; or 4) human ovarian cancer cell lines or isolated cell line subfractions based on CD133/STn expression. For each tumor type, once a sufficient number of mice have tumors ranging from 200-300 mm^3 in volume, the mice are randomized into 4 groups (n=8-14 mice/group) such that the mean group tumor volumes are essentially equivalent. […]
Tumors are then measured twice weekly with calipers [tumor volume=(Lmm×Wmm×[…])/2]. […]

Assay [3] has as its system STn in ovarian cancer tissue. The assay is described as follows: Immunohistochemical staining of ovarian cancer tissue sections. Particulars: S3F as primary antibody; peroxidase-based secondary detection; compared to normal IgG and no primary antibody. The assay is classed as binding. The source says:
Tissue sections from ovarian cancer tissue were subjected to immunohistochemical staining to identify cells expressing STn using S3F antibody as a primary antibody. Bound antibody was detected using a peroxidase-based secondary detection system.

Consider `N.N.O=C([O-])C1(C(=O)[O-])CCC1.[Pt+2]` [carboplatin, reference compound], for which the “cell viability (MTT assay)” value in assay [1] is reported as “Cell viability was reduced”.
As for `CC(=O)O[C@H]1C(=O)[C@@]2(C)[C@H]([C@H](OC(=O)c3ccccc3)[C@]3(O)C[C@H](OC(=O)[C@H](O)[C@@H](NC(=O)c4ccccc4)c4ccccc4)C(C)=C1C3(C)C)[C@]1(OC(C)=O)CO[C@@H]1C[C@@H]2O` [paclitaxel, reference compound], in assay [1], the “cell viability (MTT assay)” value is on record as “Cell viability was reduced”.

B1: S3F: anti-STn IgG2a antibody combining 3F1 variable domains with IgG2a constant domains; heavy chain SEQ ID NO: 5, light chain SEQ ID NO: 6 (antibody)
heavy: QVQLQQSDAELVKPGASVKISCKASGYTFTDHAIHWVKQKPEQGLDWIGYISPGNGDIKYNEKFKDKVTLTADKSSSTACMHLNSLTSEDSAVYFCKRSLLALDYWGQGTTLTVSSAKTTAPSVYPLAPVCGDTTGSSVTLGCLVKGYFPEPVTLTWNSGSLSSGVHTFPAVLQSDLYTLSSSVTVTSSTWPSQSITCNVAHPASSTKVDKKIEPRGPTIKPCPPCKCPAPNLLGGPSVFIFPPKIKDVLMISLSPIVTCVVVDVSEDDPDVQISWFVNNVEVHTAQTQTHREDYNSTLRVVSALPIQHQDWMSGKEFKCKVNNKDLPAPIERTISKPKGSVRAPQVYVLPPPEEEMTKKQVTLTCMVTDFMPEDIYVEWTNNGKTELNYKNTEPVLDSDGSYFMYSKLRVEKKNWVERNSYSCSVVHEGLHNHHTTKSFSRTPGK
light: DIVMTQSHKFMSTSVGDRVSITCKASQDVGTNIAWYQQKPGRSPKVLIYSASTRHTGVPDRFTGSGSGTDFTLTISNVQSEDLTDYFCQQYSSFPLTFGVGTKLELKRADAAPTVSIFPPSSEQLTSGGASVVCFLNNFYPKDINVKWKIDGSERQNGVLNSWTDQDSKDSTYSMSSTLTLTKDEYERHNSYTCEATHKTSTSPIVKSFNRNEC
Consider B1, for which the “efficacy in combination with standard chemotherapy agents used for ovarian cancer” value in assay [2] is “increases the efficacy of the antibody”. Also, the “growth of CSC tumors” value in assay [2] (i.p. once weekly) is “capable of delaying the growth of or eradicating CSC tumors”. For the same molecule, in assay [3], the immunohistochemical staining result is “Numerous cells showed positive staining”. In addition, the “dose dependence of effect on cell viability” value in assay [1] (OV90 cells) is recorded as “most effective at higher doses tested”. Further, in assay [1], the “cell viability (MTT assay)” value is “Cell viability was reduced”.
